{
  "source": "patent US20170224780A1",
  "about": "(priority 2014, published 2017)",
  "molecules": {"B1": {"name": "rAMH: Anti-mullerian hormone, protein designated by NCBI Accession No. P03971; recombinant AMH (rAMH) (protein, UniProt P03971 452-560, looked up)", "Muellerian-inhibiting factor": "SAGATAADGPCALRELSVDLRAERSVLIPETYQANNCQGVCGWPQSDRNPRYGNHVVLLLKMQVRGAALARPPCCVPTAYAGKLLISLSEERISAHHVPNMVATECGCR"}},
  "key": {"[1]": {"system": "marmoset ovarian cortical tissues (grafts)", "assay": "Xenotransplantation of frozen-thawed marmoset ovarian cortical strips into castrated SCID mice with rAMH treatment (OTCP-TP model)", "format": "in vivo", "source_text": "Five healthy adult female marmoset monkeys (Callithrix jacchus) at the age range of 13 to 23 months were made available for ovaries excision. Fresh bovine ovaries were collected from lactating milking cows, ages 1.5-3 years (n=12). Ovarian human tissues were harvested from eight donors (age range 13-26 years).\nCortical tissue strips were obtained from marmoset (n=15), bovine (n=15) and human (n=46). The cortical tissue was obtained by removal of the underlying stromal tissue. Slow freezing cryopreservation was performed according to previously published protocols. Briefly, tissue fragments were equilibrated with 0.1M sucrose and 1.5M DMSO for 30 minutes following introduction into the cryopreservation device. A multi-gradient slow freezing protocol cooled the samples to −150° C. following by storage in liquid nitrogen (LN).\nPrior to transplantation, tissues were thawed rapidly by equilibrating the samples in decreasing DMSO gradient solutions in 0.1M sucrose and cut into 2×3×2 mm pieces (Marmoset, n=29: n=15 for transplantation experiment and n=14 for transplantation+AMH experiment; Bovine, n=37; Human, n=46). Fresh thawed cortex from each experiment was embedded in […] and further studied.\nSeven-weeks-old castrated male immunodeficient mice (n=60) were used as recipient animals. Mice were castrated at 4 weeks and maintained at 28° C. under controlled SPF conditions. Xenotransplantation experiments commenced at least 2-weeks post-orchidectomy.\nOvarian tissue transplantation surgical procedures were performed as described previously. Briefly, a longitudinal incision was made in the dorsum of the anesthetized recipient mouse, the skin was lifted and the ovarian cortical strips were inserted subcutaneously. Size of transplanted tissue from all species was 2×3×2 mm. Each graft was attached in place with a 6-0 non-absorbable prolene suture. Transplanted tissues were recovered after three (3) or seven (7) days.\nIn a separate experiment, frozen marmoset cortical tissues were thawed, 2×3×2 mm cortical strips were prepared (n=14) and transplanted into castrated SCID mice as described above. rAMH, diluted in PBS, was injected (10 μg in 200 μl, per mouse, i.p.) at the time of transplantation and once daily for 3 consecutive days at 10 μg per mouse, while control mice were injected with PBS. Daily injection protocol was determined according to preliminary experiments using labeled rAMH and rAMH dosage was initially determined according to previous studies.\nAs the first set of experiments indicated maximal follicle activation and PMF loss in all species (in the absence of AMH) at three days post transplantation, the animals were sacrificed three days post transplantation. The grafts were removed and processed for histological follicle counting analysis and immunohistochemistry.\nRecovered grafts and control frozen thawed non transplanted samples were fixed in 4% paraformaldehyde, embedded in paraffin and serial 5 μm sections were prepared from the whole grafts for follicle counts and immunohistochemistry. Follicle classification as primordial or growing was performed on every sixth section of Hematoxylin and Eosin stained sections by two independent observers under a light-microscope (slides/graft: 8 for Marmoset, 9 for Bovine, 6 for Human). Only non-atretic follicles with clearly visible oocyte circled by granulosa-cell layers were referred to in results since no significant difference was found in the number of atretic follicles among the groups. […]"}, "[2]": {"system": "ovaries from 12-day-old neonatal mice", "format": "cell-based"}, "[3]": {"system": "ovaries from 12-day-old neonatal mice", "assay": "In-vitro culture of whole ovaries incubated with cisplatin with or without AMH, follicle counting", "format": "cell-based", "settings": "day 4 and day 7 in culture; results not shown", "protocol": "Ovaries from 12-day-old neonatal mice were further incubated with a different chemotherapy agent-cisplatin, with or without AMH. Control ovaries were cultured with medium alone or with AMH. Ovaries were removed after day 4 and day 7 in culture and processed for histological analysis. The number of primordial and growing follicles was counted. Primordial follicle count in the presence of AMH and cisplatin is higher than in the presence of cisplatin alone (results not shown)."}},
  "data": [
    {"molecule": "B1", "values": [
      {"measurement": "collagen levels (Sirius red staining)", "setting": "[1]; grafts three days post transplantation, both transplanted groups had a marked increase vs untransplanted control", "value": "no effect"},
      {"measurement": "PMF (primordial follicle) count, mean follicle count per section±SE", "setting": "[1]; marmoset grafts three days post transplantation, rAMH 10 μg per mouse i.p. at transplantation and once daily for 3 days, transplanted control 7.66±6.99, untransplanted control 148±37.06, p<0.001", "value": "56.33±12.12"},
      {"measurement": "additionally saved PMF compared to transplanted control", "setting": "[1]; marmoset grafts three days post transplantation, rAMH 10 μg per mouse i.p. daily", "value": 86.40, "unit": "%"},
      {"measurement": "GF/PMF ratio (growing to primordial follicles)", "setting": "[1]; transplanted + rAMH group compared to untransplanted control, ratio significantly increased in transplanted control, FIG. 4B", "value": "normalized"},
      {"measurement": "Ki-67 expressing proliferating cells (immunofluorescence, Z-stack reconstruction)", "setting": "[1]; transplanted grafts with vs without rAMH administration", "value": "Major reduction"},
      {"measurement": "numbers of primordial follicles, PM together with AMH relative to PM alone", "setting": "[2]", "value": "significantly greater numbers"},
      {"measurement": "primordial or growing follicle numbers, AMH alone vs regular media alone", "setting": "[2]", "value": "No difference"},
      {"measurement": "ratio of growing to dormant follicles, PM+AMH vs PM alone", "setting": "[2]", "value": "significantly improved"},
      {"measurement": "primordial follicle count, AMH and cisplatin vs cisplatin alone", "setting": "[3]", "value": "higher"}
    ]}
  ]
}
